Test [1] has as its target T1, Human amylin (1-37) (human).
T1 chain: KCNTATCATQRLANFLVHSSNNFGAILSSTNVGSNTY
The experiment in a line: cross-linking. To be noted: remark: other sources report otherwise.

Test [2] shares this target. The experiment in a line: cross-linking. To be noted: remark: other sources report otherwise.

B1: Human amylin (1-37) (peptide)
peptide: T1 chain
B1: the stoichiometry N is 6 in test [1] and under 6 in test [2].

As a reminder, the stoichiometry N is a count of units in the complex or per binding partner.
